Source: publication PMC11797554, “Chemical genetics reveals cross-regulation of plant developmental signaling by the immune peptide-receptor pathway” (Science Advances, 2024)
pKd: −log10 of the molar value.

Assays:
[1] = target: SCRM KiDoK peptide (Arabidopsis); experiment: BLI; as a1 but analyte MPK6 preincubated with the small molecule kC9 (MPK6:kC9 1:1.5), 150-4.68 nM; biotinylated SCRM KiDoK peptide on streptavidin probes; 25°C; 1x PBS, 2% DMSO, 0.02 Tween 20, 0.1% BSA
[2] = target: SCRM KiDoK peptide (Arabidopsis); experiment: BLI; biotinylated SCRM KiDoK peptide (500 nM) loaded on streptavidin probes; MPK6 as analyte at 150-4.68 nM; without kC9; Octet Red96, 25°C; 1x PBS, 2% DMSO, 0.02 Tween 20, 0.1% BSA; 1:1 model, Kd from kobs with steady-state analysis
[3] = target: MPK6ΔNt (29 to 305) (Arabidopsis) (UniProt Q39026); experiment: ITC; SCRM KiDoK peptide to MPK6ΔNt (29 to 305), without kC9; 25°C, Malvern PEAQ-ITC; PBS pH 7.4 with 2% DMSO
[4] = target: MPK6ΔNt (29 to 305) (Arabidopsis) (UniProt Q39026); experiment: ITC; SCRM KiDoK peptide to MPK6ΔNt (29 to 305) preincubated with the small molecule kC9; 25°C, Malvern PEAQ-ITC; PBS pH 7.4 with 2% DMSO

pKd [1] | pKd [2] | pKd [3] | pKd [4] | Substance
6.07 | 7.40 | – | – | MPK6ΔNt (29 to 305) (from UniProt Q39026 29-305) (domain or fragment)
– | – | 7.36 | 5.85 | SCRM KiDoK peptide
